Paper PMC5053136 (Acta Crystallographica. Section D, Structural Biology, 2016)

Target: the molecule itself
Test: SAXS with online ion-exchange chromatography (IEC-SAXS)

B1: D5_(323–785), the D5N and helicase domains of the Vaccinia virus helicase–primase D5 (domain or fragment)
chain: GNKLFNIAQRILDTNSVLLTERGDYIVWINNSWKFNSEEPLITKLILSIRHQLPKEYSSELLCPRKRKTVEANIRDMLVDSVETDTYPDKLPFKNGVLDLVDGMFYSGDDAKKYTCTVSTGFKFDDTKFVEDSPEMEELMNIINDIQPLTDENKKNRELYEKTLSSCLCGATKGCLTFFFGETATGKSTTKRLLKSAIGDLFVETGQTILTDVLDKGPNPFIANMHLKRSVFCSELPDFACSGSKKIRSDNIKKLTEPCVIGRPCFSNKINNRNHATIIIDTNYKPVFDRIDNALMRRIAVVRFRTHFSQPSGREAAENNDAYDKVKLLDEGLDGKIQNNRYRFAFLYLLVKWYKKYHVPIMKLYPTPEEIPDFAFYLKIGTLLVSSSVKHIPLMTDLSKKGYILYDNVVTLPLTTFQQKISKYFNSRLFGHDIESFINRHKKFANVSDEYLQYIFIEDISSP
notes: also called D5R fragment
- stoichiometry N: 6
